Laboratory results as given in US20200207874A1 (Hoffmann-La Roche, published 2020).
Values joined by “and” are separate entries in the source; they are usually repeats but may differ in a detail not shown here. Identical values can stand only once. Each block holds one binder with its values, some of them ahead of it.

Experiments:
[1] = target: T1, IGF-1R(1340-1366)[1346-pTyr]amid (phosphotyrosine at 1346; C-terminal amide); assay: SPR (BIAcore 3000), complex on SA sensor, peptide in solution
T1 construct: also called pIGF-1R peptide (free in solution); phosphorylated IGF-1R peptide
T1 peptide: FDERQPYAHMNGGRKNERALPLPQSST
Method: (§1) A BIAcore 3000 instrument (GE Healthcare) was used with a BIAcore SA sensor mounted into the system at T=25° C. The system was preconditioned at 100 μl/min with 3×1 min injection of 1 M NaCl in 50 mM NaOH and 1 min 10 mM HCl.
(§2) 124 RU amino-PEO-biotin were captured on the reference flow cell 1. […] As a control, buffer was injected instead of the ss-Fabs.
(§3) The dissociation was monitored at 50 μl/min for 5.3 min. The system was regenerated after each concentration step with a 12 sec pulse of 250 mM NaOH and was reloaded with ss-FAB ligand.

[2] = target: T1, IGF-1R(1340-1366)[1346-pTyr]amid; assay: SPR (BIAcore 3000, SA sensor, 25 C): ss-FABs hybridized on the biotinylated T40-Bi 77-mer ss-DNA linker on the surface; peptide as analyte in solution
Method: as §1, §2, §3

[3] = target: T2, IGF-1R(1340-1366)amid (C-terminal amide); assay: as above
T2 construct: also called IGF-1R peptide (free in solution); non-phosphorylated IGF-1R peptide
T2 peptide: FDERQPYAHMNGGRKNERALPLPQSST
Method: as §1, §2, §3

[4] = target: T3, hInsR(1355-1382)[1361-pTyr; Glu(Bi-PEG-1355]amid (human, not fully specified; phosphotyrosine at 1361; PEG linker with biotin on the glutamic acid at position 1355; C-terminal amide); assay: SPR (BIAcore 2000), biotinylated peptide on SA sensor
T3 construct: also called pIR peptide; IR (phosphorylated insulin receptor) peptide (biotinylated)
T3 peptide: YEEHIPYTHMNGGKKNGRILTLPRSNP

[5] = target: T4, IGF-1R(1340-1366)[1346-pTyr; Glu(Bi-PEG-1340]amid (not fully specified; phosphotyrosine at 1346; PEG linker with biotin on the glutamic acid at position 1340; C-terminal amide); assay: SPR (BIAcore 2000), biotinylated peptide on SA sensor, 100 nM analyte
T4 construct: also called pIGF-1R peptide (biotinylated); phosphorylated IGF-1R peptide
T4 peptide: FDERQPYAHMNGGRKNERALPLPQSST

[6] = target: T5, IGF-1R(1340-1366); Glu(Bi-PEG-1340]amid (not fully specified; PEG linker with biotin on the glutamic acid at position 1340; C-terminal amide); assay: as above
T5 construct: also called IGF-1R peptide (biotinylated, non-phosphorylated)
T5 peptide: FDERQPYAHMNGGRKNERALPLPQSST

[7] = target: T1, IGF-1R(1340-1366)[1346-pTyr]amid; assay: SPR (BIAcore 3000, SA sensor, 25 C): single ss-FAB hybridized on the biotinylated T0-Bi 37-mer ss-DNA linker on the surface; peptide as analyte in solution
Method: as §1, §2, §3

[8] = target: T2, IGF-1R(1340-1366)amid; assay: as above
Method: as §1, §2, §3

[9] = target: T1, IGF-1R(1340-1366)[1346-pTyr]amid; assay: SPR (BIAcore 3000, SA sensor, 25 C): single ss-FAB hybridized on the biotinylated T40-Bi 77-mer ss-DNA linker on the surface; peptide as analyte in solution
Method: as §1, §2, §3

[10] = target: T2, IGF-1R(1340-1366)amid; assay: as above
Method: as §1, §2, §3

[11] = target: T6, INR(1355-1382)[1361-pTyr]amid (human, phosphotyrosine at 1361; C-terminal amide); assay: as above
T6 construct: also called pINR peptide; phosphorylated insulin receptor peptide (free in solution)
T6 peptide: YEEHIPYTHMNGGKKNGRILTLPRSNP
Method: as §1, §2, §3

[12] = target: T1, IGF-1R(1340-1366)[1346-pTyr]amid; assay: SPR (BIAcore 3000, SA sensor, 25 C): ss-FABs hybridized on the biotinylated T0-Bi 37-mer ss-DNA linker on the surface; peptide as analyte in solution
Method: as §1, §2, §3

[13] = target: T2, IGF-1R(1340-1366)amid; assay: as above
Method: as §1, §2, §3

[14] = target: T7, streptavidin (SA) (UniProt P22629 37-163, limits assumed); assay: SPR (BIAcore 3000), streptavidin injected over 2C4-FAB'-ss-L-DNA bound to captured huFc chimera HER2 ECD
T7 construct: Injected at 250 nM as effector moiety to probe the biotin of the 75mer ss-L-DNA linker
From the text: The BIAcore assay setup comprised the following (see also FIG. 6): A polyclonal goat anti human IgG-Fc gamma antibody was immobilized on the BIAcore CM5 sensor and serves as a capture system for the huFc chimera HER2 ECD.
The FAB fragments have a calculated molecular weight of 57 kDa, each. […] Streptavidin is the effector moiety.

T7 sequence (P22629 37-163 limits assumed): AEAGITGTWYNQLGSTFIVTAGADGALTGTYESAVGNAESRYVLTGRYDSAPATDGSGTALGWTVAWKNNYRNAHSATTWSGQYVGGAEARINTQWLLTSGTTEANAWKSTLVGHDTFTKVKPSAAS

Kd [1]: 0.01 nM
Kd [2]: 0.0125 nM
Kd [3]: 0.973 nM and 1 nM
t1/2 diss [3]: 4.3 min
B1: T40 dual binding agent: ss-FAB 8.1.2 and ss-FAB 1.4.168 on the biotinylated T40-Bi 77-mer ss-DNA linker (linker 10) (bispecific antibody, V domains shown)
VH 1: EVQLQQSGPALVKPGASVKMSCKASGFTFTSYVIHWVKQKPGQGLEWIGYLNPYNDNTKYNEKFKGKATLTSDRSSSTVYMEFSSLTSEDSAVYFCARRGIYAYDHYFDYWGQGTSLTVSS
VL 1: QIVLTQSPAIMSASPGEKVTLTCSASSSVNYMYWYQQKPGSSPRLLIYDTSNLASGVPVRFSGSGSVTSYSLTISRMEAEDAATYYCQQWSTYPLTFGAGTKLELK
VH 2: QCDVKLVESGGGLVKPGGSLKLSCAASGFTFSDYPMSWVRQTPEKRLEWVATITTGGTYTYYPDSIKGRFTISRDNAKNTLYLQMGSLQSEDAAMYYCTRVKTDLWWGLAYWGQGTLVTVSA
VL 2: QLVLTQSSSASFSLGASAKLTCTLSSQHSTYTIEWYQQQPLKPPKYVMELKKDGSHTTGDGIPDRFSGSSSGADRYLSISNIQPEDESIYICGVGDTIKEQFVYVFGGGTKVTVLG
modifications: FAB′ hinge cysteine linked to ss-DNA
notes: Assembled on the SA sensor surface; also called T40-bi complex

binding result [4]: no binding (tested: 100 nM)
T1/2 dis [5]: 3 min
T1/2 dis [6]: 3 min
Kd [7]: 2.59 nM and 3 nM
koff [7]: 0.00291 s⁻¹
kon [7]: 1.12e+06 M⁻¹ s⁻¹
t1/2 diss [7]: 4 min
Kd [8]: 1.35 nM and 1 nM
koff [8]: 0.00326 s⁻¹
kon [8]: 2.41e+06 M⁻¹ s⁻¹
t1/2 diss [8]: 4 min
Kd [9]: 2.14 nM and 2 nM
koff [9]: 0.00419 s⁻¹
kon [9]: 1.96e+06 M⁻¹ s⁻¹
Kd [10]: 1.1 nM and 1 nM
koff [10]: 0.00362 s⁻¹
kon [10]: 3.3e+06 M⁻¹ s⁻¹
t1/2 diss [10]: 3 min
B2: ss-FAB′ 1.4.168 (Fab, V domains shown)
VH: DVKLVESGGGLVKPGGSLKLSCAASGFTFSDYPMSWVRQTPEKRLEWVATITTGGTYTYYPDSIKGRFTISRDNAKNTLYLQMGSLQSEDAAMYYCTRVKTDLWWGLAYWGQGTLVTVSA
VL: B1 VL 2
modifications: cysteine of the FAB′ hinge region linked to 17mer ss-DNA comprising SEQ ID NO: 05 with fluorescein
notes: FAB′ from pepsin cleavage of murine mAb 1.4.168; also called ss-FAB 1.004.168; fluorescein-ss-FAB′ 1.4.168
binding result [11]: no binding (tested: 300 nM (highest peptide step))

Kd [1]: 0.03 nM
Kd [12]: 0.0344 nM
Kd [13]: 1.2 nM and 1 nM
t1/2 diss [13]: 5 min
B3: T0 dual binding agent: ss-FAB 8.1.2 and ss-FAB 1.4.168 on the biotinylated T0-Bi 37-mer ss-DNA linker (linker 17) (bispecific antibody, V domains shown)
VH 1: B1 VH 1
VL 1: B1 VL 1
VH 2: B1 VH 2
VL 2: B1 VL 2
modifications: FAB′ hinge cysteine linked to ss-DNA

binding result [14]: no binding (tested: 250 nM)
B4: anti-HER2 antibody 2C4-FAB′-ss-L-DNA (Fab, V domains shown)
VH: EVQLVESGGGLVQPGGSLRLSCAASGFTFTDYTMDWVRQAPGKGLEWVADVNPNSGGSIYNQRFKGRFTLSVDRSKNTLYLQMNSLRAEDTAVYYCARNLGPSFYFDYWGQGTLVTVSS
VL: DIQMTQSPSSLSASVGDRVTITCKASQDVSIGVAWYQQKPGKAPKLLIYSASYRYTGVPSRFSGSGSGTDFTLTISSLQPEDFATYYCQQYYIYPYTFGQGTKVEIKQ
modifications: cysteine of the FAB′ hinge region linked via maleimide to fluorescein-labeled ss-L-DNA oligonucleotide
notes: FAB′ of 2C4 (Pertuzumab); also called 2C4-ss-L-DNA; 2C4-75mer
